Tested on: MS2 coat protein
Assay: apparent KD of MS2 coat protein; designed switch direction (-1 OFF switch, 1 ON switch): -1; higher = weaker reporter binding
Procedure, shortened: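 RNA switches sharing common flanks were transcribed by stalled E. coli RNA polymerase on Illumina chips. A doubling series of SNAP-549-labelled MS2 coat protein, from 0.7 or 1.5 nM to 3 µM, was applied in Tris-HCl pH 7.5 buffer with KCl, MgCl2, BSA, DTT, tRNA and Tween-20. Each step lasted 0.8–1.5 h at the bottom of the series and 10–20 min at the top. Normalised cluster fluorescence was curve-fitted, giving apparent KD as the per-design median over clusters.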

[1] = Eterna round: R95, input ligand: microRNA oligo, concentration not stated
[2] = input ligand: microRNA oligo, concentration not stated
[3] = Eterna round: R95, input ligand: FMN 200 uM
[4] = Eterna round: R95, input ligand: none

Sequence	apparent KD of MS2 coat protein (input ligand: FMN 200 uM)	apparent KD of MS2 coat protein (input ligand: none)	other results
CCUCUACAUGAGGAUCACCCAUGUGAGGAUAUCCUGCGAGGAUCAAAAGAUCCUCGUGGGAGAAGGCAUAUGAA [Omei Ex1 A1] (Eterna round: R97, puzzle: Exclusion 1)	34.3 nM	22.9 nM	
CCUCUACAUGAGGAUCACCCAUGUGAGGAUAUCCUGCGAGGAUCAAAAGAUCCUCGUGGGAGAAGGCAUAUGCA [Omei Ex1 A5] (Eterna round: R97, puzzle: Exclusion 1)	22.2 nM	21 nM	
CCUCUAUUUGUGAGGAUAUCGAUAAAAUGGAUUGUCGAGAAGGCACAUGAGGAUCACCCAUGUAUUGAACAGCA [JR_BMEx4_Sub022] (Eterna round: R97, puzzle: Brourd's mod of Exclusion 4)	231 nM	40.4 nM	
CCUCUGUGAGGAUAUCGCGGCGGGCUAACUCGCAAACAAAACGAGAAGGCACAUGAGGAUCACCCAUGUAGGUG [Cetiis] (Eterna round: R97, puzzle: Exclusion 4)	39.1 nM	262 nM	
CCUCUGUGAGGAUAUGGGCCCGGGCCCGUGAGGGCCCGGGCCCAGAAGGCACAUGAGGAUCACCCAUGUGGCUU [Energy optimization 2] (Eterna round: R97, puzzle: Exclusion 4)	94.4 nM	20 nM	
CCUGCACAUGAGGAUCACCCAUGUUAGGAUAUCUCGCCGCCUAAACGAAUGGUGGCCCAGAGAAGGAACAGGGC [Riatbege] (puzzle: Exclusion 1)			apparent KD of MS2 coat protein [1]: 26.5 nM
CCUGCACAUGAGGAUCACCCAUGUUAGGAUAUCUCGCCGUCGGCUUGCCGACGGUAUUAGAGAAGGGACAAGGG [JL Tixe mod 3] (puzzle: Exclusion 1)			apparent KD of MS2 coat protein [1]: 39.5 nM
CCUGUACAUGAGGAUCACCCAUGUUAGGAUAUUCAGCCCGUCGAGUAUAAGGGUUUAAGAAGAAGGGACGUGGC [Beanused] (puzzle: Exclusion 1)			apparent KD of MS2 coat protein [1]: 13.9 nM
CCUGUUCGGGUUGGUUUGGGCGGGACAUGAGGAUCACCCAUGUAGGAUAUUUUGGCUGCCGGUCGGGAGAAGGACAUGCUUGGG [-22.4, -21.3 kcal, 17% A] (Eterna round: R96, puzzle: Exclusion NG 3)	135 nM	98.3 nM	apparent KD of MS2 coat protein [2]: 61.3 nM
CCUUAUCCACAGGAUAUGCUCAUCUAAUGAUGAGCAGAAGGGUGGACAUGAGGAUCACCCAUGUUUAUCAAUGG [Omei Ex6 D3] (Eterna round: R97, puzzle: Exclusion 6)	675 nM	1040 nM	
CCUUCAGUAGUUAGGAUAUUUGGCGUCGAGGCGCAAGAGAAGGGACAUGAGGAUCACCCAUGUGAGUAUGGUAG [Eternabot (L1) Solution 35] (Eterna round: R97, puzzle: Brourd's mod of Exclusion 4)	61.9 nM	63.1 nM	
CCUUUGUCAGGAUAUCAGAACGCGCUCCUAGGGAGCGCAAAUGAGAAGGGACAUGAGGAUCACCCAUGUAAAGA [Erditive] (puzzle: Exclusion 4)			apparent KD of MS2 coat protein [3]: 228 nM; apparent KD of MS2 coat protein [1]: 48.9 nM; apparent KD of MS2 coat protein [4]: 59.2 nM
CCUUUGUCAGGAUAUCAGUACAGGUCGAGUUUAGACCUGUUUGAGAAGGGACAUGAGGAUCACCCAUGUAAAAC [Inzaerle] (puzzle: Exclusion 4)			apparent KD of MS2 coat protein [1]: 78 nM
CGAAAGGUAGGAUAUACGAAGAAAAAGGGUAGAAUAAUAACACAUGAGGAUCACCCAUGUAGAAGGACCAAAGG [Mat - Exclusion 2 - Mod of my Tesla design - D12] (puzzle: Exclusion 2)			apparent KD of MS2 coat protein [3]: 13.3 nM; apparent KD of MS2 coat protein [1]: 19.4 nM; apparent KD of MS2 coat protein [4]: 33.2 nM
CGAGCACGUGUAAGGAUAUGCUCGCUCUAUUUGGCGCAGAAGGUACAUGAGGAUCACCCAUGUAGCGACUUGGG [Eternabot (L2) Solution 7] (Eterna round: R97, puzzle: Brourd's mod of Exclusion 4)	41.6 nM	27.6 nM	
CGAGCUGCUGUGAGGAUAUACCUAUGGAUACAUAGGUAGAAGGCACAUGAGGAUCACCCAUGUCCUGCAGCUCG [jl-bmx4-4.60 Eli mod] (Eterna round: R97, puzzle: Brourd's mod of Exclusion 4)	232 nM	44 nM	
CGAGCUUUUUGCUCGUCUUACAUGAGGAUCACCCAUGUCGAGCGAGCGAGCGAGCGAAAGUUUGUUUGUUUGUUUGA [Mod of sellena 3] (Eterna round: R97, puzzle: Sensor, turn-off variant 1)	21.4 nM	20.4 nM	
CGAGGUAGAGGAUAUACGUGGAUGUAAAUUCAUGAUAUUCUACAUGAGGAUCACCCAUGUAGAAGGCUAUAGCG [JR_Ex2_Sub077] (Eterna round: R97, puzzle: Exclusion 2)	26.9 nM	18 nM	

Sequence	apparent KD of MS2 coat protein (input ligand: FMN 200 uM)	apparent KD of MS2 coat protein (input ligand: none)	other results
CGAGUACAUGAGGAUCACCCAUGUUAGGAUAUUGGUAUCAAAAGAGUCCGAUCUGAUCCAAGAAGGAGCAUGCC [Eternabot (L2) Solution 78] (Eterna round: R97, puzzle: Exclusion 1)	32.5 nM	27.1 nM	
CGAGUCUACGAGGAUAUACUUUGAAUUAUCGGCGUAGAAGGCGUGACUUGAGGAUCACCCAAGUGAUAAACCUA [Ririaned] (Eterna round: R97, puzzle: Exclusion 6)	54.1 nM	39.6 nM	
CGAUAUAAGUCAGGAUAUGAGCGCAACUGACGAUCAGAAGGGACACAUGAGGAUCACCCAUGUGAUCUAUCAAUAUUAUACAUC [Prohibition 92 - Jieux - Exclusion NG 1] (Eterna round: R96, puzzle: Exclusion NG 1)	25.5 nM	21.5 nM	apparent KD of MS2 coat protein [2]: 16.2 nM
CGAUAUUAUGUCAGGAUAUACAUUGCGAAAGCAAUGUAGAAGGGACAUGAGGAUCACCCAUGUUCCUACUAUCG [Omei A 1] (puzzle: Brourd's mod of Exclusion 4)			apparent KD of MS2 coat protein [1]: 11.9 nM
CGAUGAGGAGUGAGGAUAUCGUGUUCGAAAGAACGUGAGAAGGCACAUGAGGAUCACCCAUGUGAUCCUCAUCG [Omei Ex4B A21] (Eterna round: R97, puzzle: Brourd's mod of Exclusion 4)	29.8 nM	24.8 nM	
CGAUGCACGAAUCCACAUGAGGAUCACCCAUGUCGUGUUAGCGAGGAUAUCGGAGACACAUAGUAUGAGAAGGCGCGAACCUGA [Ex NG3 #22] (Eterna round: R96, puzzle: Exclusion NG 3)	13.1 nM	13.1 nM	apparent KD of MS2 coat protein [2]: 11.9 nM
CGAUGGCGAGGAUAUACAUGAGGAUCACCCAUGUGAGAGAUACUAGUGAGGUCGAUUAGUAGAAGGCGCUGUCG [Mat - Exclusion 3 - Eli Mod - D70] (Eterna round: R97, puzzle: Exclusion 3)	883 nM	38.6 nM	
CGAUGUAGAGGAUAUACGUGAAUUUUGUUAUUUUUUAAUUUACAUGAGGAUCACCCAUGUAGAAGGCUAUAUCG [JR_Ex2_Sub087] (Eterna round: R97, puzzle: Exclusion 2)	91.9 nM	22.2 nM	
CGAUGUCUUCGGACAUCGAACAUGAGGAUCACCCAUGUAAUGAGCAGAUCUUCAUGCAAGCUUUUUGCUCGUCUUAU [Sensor v3 - turn-off variant 1 - 44] (puzzle: Sensor v3, turn-off variant 1)			apparent KD of MS2 coat protein [3]: 215 nM; apparent KD of MS2 coat protein [1]: 11.6 nM; apparent KD of MS2 coat protein [4]: 213 nM
CGAUGUGGAGUGAGGAUAUCGUGUUCGAAAGAACGUGAGAAGGCACAUGAGGAUCACCCAUGUGAUUCAUGUCG [Omei Ex4B A7] (Eterna round: R97, puzzle: Brourd's mod of Exclusion 4)	40.9 nM	26.2 nM	
CGAUGUUAUGUCAGGAUAUGCGUUGCGAAAGCAAUGCAGAAGGGACAUGAGGAUCACCCAUGUCCUAACCAUCG [Omei A 5] (puzzle: Brourd's mod of Exclusion 4)			apparent KD of MS2 coat protein [1]: 12.7 nM
CGCAAAAGAGGAUAUACAUGAGGAUCACCCAUGUUUUCUCUUCAUAACGGAAACUCGUGUAGAAGGCUUGUGCG [EX3 C.18] (Eterna round: R97, puzzle: Exclusion 3)	94.4 nM	103 nM	
CGCAAACAUGAGGAUCACCCAUGUGAGGAUAUCAUGCUUCGUAGUAAACUACGAAGUGUGAGAAGGCACGUGCG [Omei Ex1 D4] (Eterna round: R97, puzzle: Exclusion 1)	42.9 nM	29.9 nM	
CGCAACGCAAGAGGAUAUGUUGGACAUGAGGAUCACCCAUGUAAAAUUGGCGAAACGCAUAUCCAGUAGAAGGCUUCCGAGCAA [Eternabot solution 15] (Eterna round: R96, puzzle: Exclusion NG 2)	34.6 nM	24.1 nM	apparent KD of MS2 coat protein [2]: 15.9 nM
CGCAUACAUGAGGAUCACCCAUGUGAGGAUAUCAUGCUUCGUAGUAAACUACGAAGUGUGAGAAGGCACAUGCG [Omei Ex1 D2] (Eterna round: R97, puzzle: Exclusion 1)	112 nM	62.6 nM	
CGCAUGUGAGGAUAUUAGUAGUAGUCAGAAUAGACUAUUACUGAGAAGGUACAUGAGGAUCACCCAUGUAUCCG [Eli x4 4.21] (Eterna round: R97, puzzle: Exclusion 4)	28.5 nM	17.1 nM	
CGCCGAGUGUUAGGAUAUCACAAGCAUCAGCGGUGAGAAGGAACAUGAGGAUCACCCAUGUACUGUCCCAUAAGGACAGGUUUC [Geestiza] (Eterna round: R96, puzzle: Exclusion NG 1)	82.7 nM	60.8 nM	apparent KD of MS2 coat protein [2]: 40.9 nM
